US20140072613A1 (published 2014)

T1: IKKα(h) (human, UniProt O15111 1-745)
T1 sequence (looked up): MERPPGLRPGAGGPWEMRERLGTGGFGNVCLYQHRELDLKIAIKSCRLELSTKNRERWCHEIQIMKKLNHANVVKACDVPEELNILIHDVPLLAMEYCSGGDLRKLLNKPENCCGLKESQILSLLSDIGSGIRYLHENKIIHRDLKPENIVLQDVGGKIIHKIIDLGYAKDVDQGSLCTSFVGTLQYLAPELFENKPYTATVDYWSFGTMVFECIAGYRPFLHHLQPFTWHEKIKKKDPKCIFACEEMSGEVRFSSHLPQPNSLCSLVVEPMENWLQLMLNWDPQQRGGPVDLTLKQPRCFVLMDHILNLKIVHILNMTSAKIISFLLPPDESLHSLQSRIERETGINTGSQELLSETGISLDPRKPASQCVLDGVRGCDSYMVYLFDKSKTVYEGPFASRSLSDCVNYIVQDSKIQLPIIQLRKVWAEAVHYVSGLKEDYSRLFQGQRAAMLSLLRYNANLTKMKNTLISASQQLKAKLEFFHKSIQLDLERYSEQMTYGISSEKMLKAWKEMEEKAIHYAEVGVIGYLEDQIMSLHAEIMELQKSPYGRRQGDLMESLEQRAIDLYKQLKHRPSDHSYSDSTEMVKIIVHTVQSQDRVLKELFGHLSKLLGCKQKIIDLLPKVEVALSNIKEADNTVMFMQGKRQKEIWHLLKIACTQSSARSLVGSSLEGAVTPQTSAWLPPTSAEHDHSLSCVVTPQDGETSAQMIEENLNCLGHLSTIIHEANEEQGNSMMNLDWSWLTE

T2: NLK(h) (human, UniProt Q9UBE8 1-527, limits assumed)
T2 sequence (looked up): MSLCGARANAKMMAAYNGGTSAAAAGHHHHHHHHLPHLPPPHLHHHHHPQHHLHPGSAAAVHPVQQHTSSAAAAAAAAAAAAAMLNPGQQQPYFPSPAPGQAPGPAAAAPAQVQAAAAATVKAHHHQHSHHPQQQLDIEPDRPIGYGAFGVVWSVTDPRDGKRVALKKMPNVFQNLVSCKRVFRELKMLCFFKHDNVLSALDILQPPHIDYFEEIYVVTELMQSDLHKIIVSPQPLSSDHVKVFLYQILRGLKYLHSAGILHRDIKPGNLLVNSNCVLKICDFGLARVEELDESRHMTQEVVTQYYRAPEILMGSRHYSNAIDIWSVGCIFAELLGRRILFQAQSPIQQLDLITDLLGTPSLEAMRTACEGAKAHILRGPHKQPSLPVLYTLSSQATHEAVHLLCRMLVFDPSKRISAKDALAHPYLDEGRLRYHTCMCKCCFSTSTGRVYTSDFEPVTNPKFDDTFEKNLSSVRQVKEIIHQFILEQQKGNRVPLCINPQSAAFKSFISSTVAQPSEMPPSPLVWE

T3: EphB2(h) (human, UniProt P29323 565-986, limits assumed)
T3 sequence (looked up): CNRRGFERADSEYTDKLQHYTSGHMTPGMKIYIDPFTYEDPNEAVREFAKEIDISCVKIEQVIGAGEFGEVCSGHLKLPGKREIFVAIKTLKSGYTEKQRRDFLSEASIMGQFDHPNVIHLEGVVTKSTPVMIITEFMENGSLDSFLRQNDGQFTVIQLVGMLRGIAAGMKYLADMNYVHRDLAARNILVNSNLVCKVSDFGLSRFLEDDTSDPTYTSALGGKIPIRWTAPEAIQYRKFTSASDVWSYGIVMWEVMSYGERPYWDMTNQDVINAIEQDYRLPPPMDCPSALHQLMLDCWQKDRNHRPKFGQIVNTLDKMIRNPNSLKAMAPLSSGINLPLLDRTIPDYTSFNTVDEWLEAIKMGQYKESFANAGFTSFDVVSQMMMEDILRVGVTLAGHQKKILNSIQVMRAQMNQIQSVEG


How the values were obtained:
Test in all cases: cell-based or functional assay
MAPKAP-K2(h) = MAPKAP-K2(h) (human, UniProt P49137 46-400)
MAPKAP-K3(h) = MAPKAP-K3(h) (human, UniProt Q16644 1-382, limits assumed)
TrkB(h) = TrkB(h) (human, UniProt Q16620 455-822, limits assumed)
CaMKI(h) = CaMKI(h) (human, UniProt Q14012 1-370)
IGF-1R(h), activated = IGF-1R(h), activated (human, UniProt P08069 959-1367, limits assumed)
ACK1(h) = ACK1(h) (human, UniProt Q07912 110-476, limits assumed)
IKKα(h) = target: T1, IKKα(h)
MLCK(h) = MLCK(h) (human)
NLK(h) = target: T2, NLK(h)
PDGFRβ(h) = PDGFRβ(h) (human, UniProt P09619 557-1106, limits assumed)
PKGη(h) = PKGη(h) (human)
SRPK2(h) = SRPK2(h) (human, UniProt P78362 1-688, limits assumed)
Tie2(R849W)(h) = Tie2(R849W)(h) (human, UniProt Q02763 771-1124, limits assumed)
c-RAF(h) = c-RAF(h) (human, UniProt P04049 306-648, limits assumed)
EGFR(L858R)(h) = EGFR(L858R)(h) (human, UniProt P00533 696-1210, limits assumed)
EphB2(h) = target: T3, EphB2(h)
FAK(h) = FAK(h) (human, UniProt Q05397 1-1052, limits assumed)
HIPK3(h) = HIPK3(h) (human, UniProt Q9H422 163-562, limits assumed)
Lck(h) = Lck(h) (human, UniProt P06239 1-509)
CK1γ1(h) = CK1γ1(h) (human, UniProt Q9HCP0 1-422)
Abl(M351T)(h) = Abl(M351T)(h) (human, UniProt P00519 27-1130, limits assumed)

Binder	inhibition of kinase activity at 100 µM (MAPKAP-K2(h)) [%]	inhibition of kinase activity at 100 µM (MAPKAP-K3(h)) [%]	inhibition of kinase activity at 100 µM (TrkB(h)) [%]	inhibition of kinase activity at 100 µM (CaMKI(h)) [%]	% activity, 100 µM (IGF-1R(h), activated) [%]	% activity, 100 µM (IKKα(h)) [%]	% activity, 100 µM (MLCK(h)) [%]	% activity, 100 µM (NLK(h)) [%]	% activity, 100 µM (PDGFRβ(h)) [%]	% activity, 100 µM (EphB2(h)) [%]	further results
KAFAKLAARLYRKALARQLGVAA [MMI-0400]	> 65	> 65	> 65	> 65	77	87	1	90	53	22	% activity, 100 µM (ACK1(h)): 95%; % activity, 100 µM (PKGη(h)): 98%; % activity, 100 µM (SRPK2(h)): 97%; % activity, 100 µM (Tie2(R849W)(h)): 108%; % activity, 100 µM (c-RAF(h)): 102%; % activity, 100 µM (EGFR(L858R)(h)): 52%; % activity, 100 µM (FAK(h)): 96%
FAKLAARLYRKALARQLGVAA [MMI-0300]	> 65	> 65	> 65	> 65	80	93	2	87	81	18	% activity, 100 µM (HIPK3(h)): 93%; % activity, 100 µM (Lck(h)): -2%; % activity, 100 µM (CK1γ1(h)): 111%; % activity, 100 µM (Abl(M351T)(h)): 90%
